The record followed here is patent US20180044391A1 (DEUTSCHES KREBSFORSCHUNGSZENTRUM, published 2018).

The target in this test is T1, CD19 (UniProt P15391 20-556, limits assumed).
T1 sequence (looked up): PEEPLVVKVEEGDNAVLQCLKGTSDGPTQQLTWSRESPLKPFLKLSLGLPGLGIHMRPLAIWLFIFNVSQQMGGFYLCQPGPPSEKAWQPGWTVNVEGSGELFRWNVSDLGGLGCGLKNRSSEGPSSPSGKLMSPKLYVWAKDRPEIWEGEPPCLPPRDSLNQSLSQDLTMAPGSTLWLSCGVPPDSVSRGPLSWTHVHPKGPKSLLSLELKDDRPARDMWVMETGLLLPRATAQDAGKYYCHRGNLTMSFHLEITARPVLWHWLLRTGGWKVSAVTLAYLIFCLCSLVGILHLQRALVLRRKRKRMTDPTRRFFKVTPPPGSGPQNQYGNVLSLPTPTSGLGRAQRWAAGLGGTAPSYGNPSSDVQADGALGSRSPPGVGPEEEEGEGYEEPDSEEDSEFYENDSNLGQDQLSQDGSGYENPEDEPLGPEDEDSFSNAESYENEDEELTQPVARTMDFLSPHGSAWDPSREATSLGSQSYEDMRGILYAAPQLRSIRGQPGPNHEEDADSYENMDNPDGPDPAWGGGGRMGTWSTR
Briefly: cell-based or functional assay.

B1: αCD19-SDIE (antibody, human IgG1, V domains shown)
VH: EVQLQQSGPELIKPGASVKMSCKASGYTFTSYVMHWVKQKPGQGLEWIGYINPYNDGTKYNEKFKGKATLTSDKSSSTAYMELSSLTSEDSAVYYCARGTYYYGSRVFDYWGQGTTLTVSS
VL: DIVMTQAAPSIPVTPGESVSISCRSSKSLLNSNGNTYLYWFLQRPGQSPQLLIYRMSNLASGVPDRFSGSGSGTAFTLRISRVEAEDVGVYYCMQHLEYPFTFGAGTKLELK
Regarding B1, the “inhibition of proliferation of NALM16 cells with PBMC (3H-thymidine uptake, 2 days)” value was around 60%.
